In patent US20240174755A1 (published 2024):

Columns and labels:
[1] = target: T1, human EGFR/HER1/ErbB1 Protein (His Tag, Sino Biological; Cat. Number 10001-H08H) (human, UniProt P00533 25-645); assay: direct ELISA, EGFR coated, streptavidin-HRP detection
T1 construct: Bought; construct not described; not shown: His tag
Protocol: (§1) 96-well maxisorp (Nunc) immunosorp plates were coated with 2 ug/ml of human PDGFRa (Sino Biological; Cat. Number; 10556-HCCH) or 2 ug/ml human EGFR/HER1/ErbB1 Protein (His Tag, Sino Biological; Cat. Number; 10001-H08H) in PBS, 100 ul per well, at 4C overnight. Wells were washed thrice in PBS. Unspecific binding sites were blocked in 4% BSA/PBS for 1 h at RT, followed by washing thrice in PBS. VHH-biotin conjugates, diluted at 0.01-100 nM in 1% BSA/PBS, were incubated for 1 h at RT, followed by washing thrice in PBS. Streptavidin-horseradish peroxidase (HRP; GeneTex) was diluted 1:40,000 in 1% BSA/PBS and was incubated for 1 h at RT. PDGFRa or EGFR was detected with positive control antibodies rabbit anti-human PDGFRa/CD140a Antibody, (Cat no: 10556-R065) or rabbit anti-human EGFR/HER1/ErbB1 (Catalog no: 10001-R021, both from Sino Biological) diluted in 1% BSA/PBS at 1:5000 and were incubated for 1 h at RT, shaking. Secondary HRP-conjugated anti-rabbit-antibody was diluted at 1:5000 in 1% BSA/PBS and was incubated for 1 h at RT, shaking. Wells were washed 6 times in PBS. o-Phenylenediamine dihydrochloride (OPD; Sigma-Aldrich) was used as HRP substrate at 0.4 mg/ml in 0.05 M phosphate-citrate buffer pH 5.0 with 0.03% sodium perborate (Sigma-Aldrich), prepared according to the manufacturer's recommendations, and was used in volume of 100 ul per well. Reaction was allowed to proceed for 30 min at RT in dark, and was stopped by adding 50 ul of 1.5 M HCl. Optical density was measured at 492 nm on a Synergy H1 microplate reader (BioTek).

[2] = target: T2, human PDGFRa (Sino Biological; Cat. Number 10556-HCCH) (human, UniProt P16234 24-524, limits assumed); assay: direct ELISA, PDGFRa coated, streptavidin-HRP detection
T2 construct: Bought; construct not described; also called PDGFRα
Protocol: as §1
VHH-biotin binding to human PDGFRa was assessed using an ELISA, where wells were coated with PDGFRa, and VHH-biotin binding was detected using streptavidin-HRP with OPD as a substrate.

[3] = target: T3, human PDGFR β extra-cellular domain (ECD), Fc- and His-tagged (Sino Biological) (human, UniProt P09619 33-532); assay: biotin-streptavidin ELISA, human PDGFR β ECD coated at 1 ug/ml
T3 construct: extracellular domain; Bought; also called hECD; Fc/His-tagged PDGFR β ECD; not shown: Fc tag and His tag
Protocol: (§2) In this example, the binding affinity of biotin-conjugated VHHs 1B5 and 1E12 to either human or mouse PDGFR β extra-cellular domain (ECD) was assessed using biotin-streptavidin ELISA. Human or mouse PDGFR β ECD was coated on immunoassay wells, where 1B5-biotin or 1E12-biotin were captured. Binding was detected using streptavidin-HRP and ODP as a substrate.
ELISA Method 96-well maxisorp (Nunc) immunosorp plates were coated with 1 ug/ml or 2 ug/ml of PDGFR β extracellular domain (ECD; Fc- and His-tagged, Sino Biological) or mouse PDGFR β ECD (R&D Systems) 4 ug/ml in PBS, 100 ul per well, at 4C overnight. Wells were washed thrice in PBS. Unspecific binding sites were blocked in 4% BSA/PBS for 1h at RT, followed by washing thrice in PBS. VHHs 1B5-biotin or 1E12-biotin, diluted at 0.01-100 nM in 1% BSA/PBS, was allowed to bind on ECD for 1 h at RT, followed by washing thrice in PBS. Streptavidin-horseradish peroxidase (HRP; GeneTex) was diluted 1:10,000 in 1% BSA/PBS and was incubated for 1 h at RT. […] Optical density was measured at 492 nm on a Synergy H1 microplate reader (BioTek). […]

[4] = target: T4, mouse PDGFR β ECD (R&D Systems) (mouse, UniProt P05622 32-531); assay: biotin-streptavidin ELISA, mouse PDGFR β ECD coated at 4 ug/ml
T4 construct: extracellular domain; Bought; also called mECD; mouse ECD
T4 sequence (looked up): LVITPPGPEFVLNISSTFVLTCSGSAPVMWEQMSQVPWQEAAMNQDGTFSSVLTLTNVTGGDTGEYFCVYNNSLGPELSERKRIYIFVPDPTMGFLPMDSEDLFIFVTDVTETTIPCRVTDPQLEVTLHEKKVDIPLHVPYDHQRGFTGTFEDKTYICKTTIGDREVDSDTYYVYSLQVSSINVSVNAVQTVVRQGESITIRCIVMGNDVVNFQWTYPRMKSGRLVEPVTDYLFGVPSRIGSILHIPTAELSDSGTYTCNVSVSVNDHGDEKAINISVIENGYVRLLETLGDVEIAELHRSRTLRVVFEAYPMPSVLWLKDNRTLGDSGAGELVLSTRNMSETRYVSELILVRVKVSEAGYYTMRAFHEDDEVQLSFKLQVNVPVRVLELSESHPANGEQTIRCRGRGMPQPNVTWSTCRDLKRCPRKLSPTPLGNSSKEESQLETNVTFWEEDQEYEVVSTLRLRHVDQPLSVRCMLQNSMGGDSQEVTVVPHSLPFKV
Protocol: as §2
ELISA Method 96-well maxisorp (Nunc) immunosorp plates were coated with 1 ug/ml or 2 ug/ml of PDGFR β extracellular domain (ECD; Fc- and His-tagged, Sino Biological) or mouse PDGFR β ECD (R&D Systems) 4 ug/ml in PBS, 100 ul per well, at 4C overnight. Wells were washed thrice in PBS. Unspecific binding sites were blocked in 4% BSA/PBS for 1h at RT, followed by washing thrice in PBS. VHHs 1B5-biotin or 1E12-biotin, diluted at 0.01-100 nM in 1% BSA/PBS, was allowed to bind on ECD for 1 h at RT, followed by washing thrice in PBS. Streptavidin-horseradish peroxidase (HRP; GeneTex) was diluted 1:10,000 in 1% BSA/PBS and was incubated for 1 h at RT. […] Optical density was measured at 492 nm on a Synergy H1 microplate reader (BioTek).

[5] = target: T3, human PDGFR β extra-cellular domain …; assay: SPR (Biacore 3000), Fc/His PDGFR β ECD captured on protein A; only 1E12-Flag-His was run in SPR
Protocol: (§3) FIG. 11: VHH (flag-his-tagged, or conjugated with HL488, NOTA or 800 CW) binding to human extracellular domain (ECD) of PDGFR β assessed with surface plasmon resonance (SPR). Fc/His-tagged PDGFR β ECD was bound to protein A chemically conjugated to CM4 sensor chip. Binding of VHHs was tested at 0.39-50 nM. Shown are representative SPR Biacore traces of tagged or conjugated 1B5 VHH (panels A); tagged or conjugated 1D4 VHH (panels B); tagged or conjugated 1H4 VHH (panels C) or tagged VHH 1E12 (panel D).
(§4) SPR analysis was performed using the Biacore 3000 instrument (GE Healthcare). Protein A was chemically bound to a CM4 sensor chip (GE Healthcare) according to the primary amine procedure to approximately 2100 response units (RU). Fc/His-tagged PDGFR β ECD at 0.4-2.07 ng/ul was bound to protein A at flow rate of 35 ul/min. Run buffer HBS-EP (GE Healthcare; 0.01 M HEPES pH 7.4, 0.15 M NaCl, 3 mM EDTA, 0.005% v/v Surfactant P20) was used for VHHs 1D4, 1H4 and 1E12 conjugates at 50, 25, 12.5, 6.25, 3.13, 1.56, 0.78 and 0.39 nM. For 1B5 conjugates, HBS-EP+0.5 M NaSCN was as run buffer to reduce non-specific binding to a control path without PDGFR β ECD. A flow rate 70 ul/min was used for VHH injections in volumes of 150 ul. Regeneration of the sensor CM4 chip was performed by three successive injections of c. 30 s 10 mM glycine-HCl pH 2, 10 mM glycine-HCl pH 1.5, and 0.5 M NaSCN/10 mM NaOH.

[6] = target: human PDGFR β ECD (U-protein Express, Utrecht) (human) (UniProt P09619); assay: dose response ELISA on immobilized PDGFR β
[7] = target: human PDGFR β ECD (U-protein Express, Utrecht) (human) (UniProt P09619); assay: dose response ELISA, PDGFR β ECD coated at 2 µg/ml, rabbit anti-VHH detection
[8] = target: T3, human PDGFR β extra-cellular domain …; assay: SPR (Biacore 3000), Fc/His PDGFR β ECD captured on protein A; 1D4 construct not stated
Protocol: as §3, §4

B1: 1B5-biotin (VHH)
VHH: EVQLVESGGGLVQPGGSLRLSCVASGFSFSESAMSWVRQAPGKGLEWLSGISSGGGRSTTYAESVEGRFTISRDDAKNTLMLQMNSLKSEDTAVYYCAKTGYCSGYNCNFAPRGQGTQVTVSS
modifications: Biotin-maleimide on the C-terminal cysteine of the C-Direct tag
notes: ID NO: 25 or 26; also called VHH 1B5-biotin; biotin-conjugated 1B5; not shown: C-terminal C-Direct tag with a free cysteine and an EPEA purification tag (vector pYQVQ11)
B1 was tested, and the binding result [1] was “no binding (tested: 0.01-100 nM)”, the binding result [2] was “no binding (tested: 0.01-100 nM)” and the EC50 [3] was 0.117 nM.

B2: 1E12-biotin (VHH)
VHH: EVQLVESGGGLVQAGGSLRLSCAPSERSFSAYLMGWFRQAQGKEREFVAAWRWPTSTTYYSDSGKGRFTITGDNAKNTVELEMNSLKPEDTAVYYCAARRGILYGPATSPTAYDFWGQGTQVTVSS
modifications: Biotin-maleimide on the C-terminal cysteine of the C-Direct tag
notes: ID NO: 31 or 32; also called VHH 1E12-biotin; biotin-conjugated 1E12; not shown: C-terminal C-Direct tag with a free cysteine and an EPEA purification tag (vector pYQVQ11)
For B2, the binding result [1] was “no binding (tested: 0.01-100 nM)”, the binding result [2] was “no binding (tested: 0.01-100 nM)” and the EC50 [4] was 1.1 nM.

B3: 1E12-Flag-His (VHH)
VHH: EVQLVESGGGLVQAGGSLRLSCAPSERSFSAYLMGWFRQAQGKEREFVAAWRWPTSTTYYSDSGKGRFTITGDNAKNTVELEMNSLKPEDTAVYYCAARRGILYGPATSPTAYDFWGQGTQVTVSS
notes: Made in E. coli; ID NO: 31 or 32 (N-terminal residue differs); also called VHH 1E12 (flag-his-tagged); tagged VHH 1E12; not shown: C-terminal FLAG-His tag from vector pMEK222
A Kd [5] of about 100 nM was found for B3 in this work.

B4: QPD-1D4 (VHH)
VHH: EVQLVESGGGLVQAGDSLRLSCAVSGRAQSRDVVGWFRQAPGKEREFLALVTRSYSTYYGASVKGRFTISRDNAKNTVHLEMNSLKPEDTGVYYCAADQGFCSGSGCYDWRTFHVWGQGTQVTVSS
notes: Purified, unconjugated VHH; also called VHH 1D4
An apparent binding affinity [6] of 0.5 nM, an apparent affinity [7] of under 1 nM and a Kd [8] of about 0.02 nM were found for B4 in this work.
